One protein from article PMC7323586 (Journal of molecular biology, 2020) can be followed below.

The data set concerns the molecule itself. Nature of the data set: SEC. (In gel filtration, larger molecules generally elute earlier.)

B1: Bacillus subtilis xanthine phosphoribosyltransferase (XPRT), hexahistidine tag removed (enzyme, UniProt P42085 1-194, looked up)
chain: MEALKRKIEEEGVVLSDQVLKVDSFLNHQIDPLLMQRIGDEFASRFAKDGITKIVTIESSGIAPAVMTGLKLGVPVVFARKHKSLTLTDNLLTASVYSFTKQTESQIAVSGTHLSDQDHVLIIDDFLANGQAAHGLVSIVKQAGASIAGIGIVIEKSFQPGRDELVKLGYRVESLARIQSLEEGKVSFVQEVHS
The stoichiometry N is a count of units in the complex or per binding partner. As to B1, the “stoichiometry N” value turned out to be 2.
